5 substances from patent US8551717B2, “Method for determining sumoylation” (Medizinische Hochschule Hannover, priority 2008, dated 2013) can be followed below.

One assay has as its target T1, U-CDC37 (Homo sapiens, UniProt P63279+Q16543).
T1 construct: expressed in transfected cells; host or cells: HEK293
Nature of the assay: Trans-SUMOylation by U-CDC37. Format: cell-based. On the set-up: key: (++), strong TransSUMOylation; (+), TransSUMOylation; (+/−) weak TransSUMOylation; (−) no detectable TransSUMOylation. The note with it: protein 2 construct coexpressed with U-CDC37 and EGFP-SUMO1 in HEK293; western blot; Table 2. The source says:
(§1) To identify new SUMOylation substrates and to study the function of SUMOylation the Ubc9/substrate dimerisation-dependent SUMOylation system (USDDS) was developed which consists of fusions of the SUMOylation substrate and of the SUMO-conjugating enzyme Ubc9 to the chemically activatable heterodimerisation domains FKBP and FRB, respectively, as shown in FIG. 2. When the substrate protein fused to FKBP is coexpressed with Ubc9-FRB, treatment of HEK293 cells with the rapamycin-related dimerizer AP21967 induces SUMOylation of the substrate protein fused to FKBP at its specific SUMOylation site. […] Dependent on an EcoRl site in the coding sequence, seven C-terminal amino acids of the human STAT1a in the STAT1-FKBP/FRB fusion proteins are missing. For the SUMOylation analysis HEK293 (human embryonic kidney cells) cells have been used. HEK293 cells were cultured in Dulbecco's modified Eagle's medium with high glucose, complemented with 10% fetal calf serum, 2 mM L-glutamine, 100 U/ml penicillin and […] streptomycin. […]
(§2) As shown above, the SUMOylation of a protein of interest can be induced by the heterodimerisation with a binding protein fused to Ubc9. […] Therefore the protein pairs were coexpressed with EGFP-SUMO1 in HEK293 cells and after 24h the transfectants were lysed and the protein extracts were analyzed in western blots. […]
Background: A western blot detects proteins with antibodies after separation by electrophoresis.

A further assay concerns the target T2, CDK4-U (Homo sapiens, UniProt P11802+P63279).
T2 construct: expressed in transfected cells; host or cells: HEK293
Nature of the assay: Trans-SUMOylation by CDK4-U. Format: cell-based. More on the design: key: (++), strong TransSUMOylation; (+), TransSUMOylation; (+/−) weak TransSUMOylation; (−) no detectable TransSUMOylation. The note with it: protein 2 construct coexpressed with CDK4-U and EGFP-SUMO1 in HEK293; western blot; Table 1.
From the text: as §1, §2

A further assay has as its target T3, CRSP9-U (Homo sapiens, UniProt O43513+P63279).
T3 construct: Ubc9 (fusion partner); expressed in transfected cells; host or cells: HEK293
Nature of the assay: Trans-SUMOylation by CRSP9-U. Format: cell-based. On the set-up: key: (++), strong TransSUMOylation; (+), TransSUMOylation; (+/−) weak TransSUMOylation; (−) no detectable TransSUMOylation. The note with it: protein 2 construct coexpressed with CRSP9-U and EGFP-SUMO1 in HEK293; western blot; Table 2.
From the text: as §1, §2

The next assay deals with T4, U-MK5 (Homo sapiens, UniProt P63279+Q8IW41).
T4 construct: expressed in transfected cells; host or cells: HEK293
Nature of the assay: Trans-SUMOylation by U-MK5. Format: cell-based. More on the design: key: (++), strong TransSUMOylation; (+), TransSUMOylation; (+/−) weak TransSUMOylation; (−) no detectable TransSUMOylation. As to conditions: protein 2 construct coexpressed with U-MK5 and EGFP-SUMO1 in HEK293; western blot; Table 2. An excerpt:
To identify new SUMOylation substrates and to study the function of SUMOylation the Ubc9/substrate dimerisation-dependent SUMOylation system (USDDS) was developed which consists of fusions of the SUMOylation substrate and of the SUMO-conjugating enzyme Ubc9 to the chemically activatable heterodimerisation domains FKBP and FRB, respectively, as shown in FIG. 2. When the substrate protein fused to FKBP is coexpressed with Ubc9-FRB, treatment of HEK293 cells with the rapamycin-related dimerizer AP21967 induces SUMOylation of the substrate protein fused to FKBP at its specific SUMOylation site. […] Dependent on an EcoRl site in the coding sequence, seven C-terminal amino acids of the human STAT1a in the STAT1-FKBP/FRB fusion proteins are missing. For the SUMOylation analysis HEK293 (human embryonic kidney cells) cells have been used. HEK293 cells were cultured in Dulbecco's modified Eagle's medium with high glucose, complemented with 10% fetal calf serum, 2 mM L-glutamine, 100 U/ml penicillin and […] streptomycin. We performed transfection of HEK293 cells using the polyethylenimine transfection reagent. HEK293 cells of a fresh confluent 10 cm plate were transferred on a 12-well plate. After 12-24 h incubation about 70% cell confluence is reached. For each well 45 μl of serum/antibiotic free DMEM medium is mixed with 750 ng of the transfection-purity expression vector DNA (all together 47 μl) and vortexed. Then, 3 μl of vortexed polyethylenimin stock solution (1 mg/ml) is added and the mixture is vortexed. After incubation at room temperature for 10 min 450 μl fresh DMEM with antibiotics is added to the mixture and vortexed. The medium on the cells was then completely removed and immediately, the 500 μl transfection mix was added carefully to each well. The 12 well plate was rocked to ensure a proper distribution of the DNA/transfection reagent complex. After an incubation of the cells for 24 h at a 37° C. in a humidified CO2-incubator (5%) the cells were lysed in 150 μl Laemmli (2×) gel loading buffer (160 mM Tris-HCL, pH 6.8, 4% (w/v) sodium dodecyl sulphate (SDS), 20% (v/v) glycerol, 0.5% β-mercaptoethanol (v/v), 0.008% (w/v) bromophenol blue) and incubated for 10 min at 95° C. For western blot analysis the proteins were separated by SDS-PAGE, blotted on a PVDF membrane and developed with specific primary antibodies (α-Ubc9 (H81, Santa Cruz), α-pY701-STAT1 (Tyr701, Cell Signaling), α-STAT1 (Cell Signaling), α-p53 (1C12, Cell Signaling), α-SUMO1 (Cell Signaling), a horseradish peroxidase (HRP)-conjugated secondary antibody (different companies), the ECL+ (Amersham) or Immobilon™ Western (Millipore) and the LAS-3000 imaging system (Fuji).
As shown above, the SUMOylation of a protein of interest can be induced by the heterodimerisation with a binding protein fused to Ubc9. To find out if Trans-SUMOylation is useful for the characterisation of common protein interactions, protein binding pairs well known from the literature or found in two hybrid screens. […] Therefore the protein pairs were coexpressed with EGFP-SUMO1 in HEK293 cells and after 24h the transfectants were lysed and the protein extracts were analyzed in western blots.
Protein-protein interactions described in the cited references were tested for Trans-SUMOylation. Each specific protein-protein interaction was tested by coexpression of different combinations of protein 1 fused to Ubc9 (U) with protein 2 mostly fused two a tag (HA, FLAG, Myc, GST, ST). (++), strong TransSUMOylation; (+), TransSUMOylation; (+/−) weak TransSUMOylation; (−) no detectable TransSUMOylation; (MEKK1ca) the activated MAP3 kinase MEKK1, that can enhance protein SUMOylation, was coexpressed.
Protein-protein interaction of each pair of protein 1/protein 2 was tested by coexpression of different combinations of a protein 1 fused to Ubc9 (U) with protein 2 mostly fused two a Tag (HA, FLAG, GST, ST). […]

In the next assay the target is T5, U-MEK2 (Homo sapiens, UniProt P36507+P63279).
T5 construct: expressed in transfected cells; host or cells: HEK293
Nature of the assay: Trans-SUMOylation by U-MEK2. Format: cell-based. More on the design: key: (++), strong TransSUMOylation; (+), TransSUMOylation; (+/−) weak TransSUMOylation; (−) no detectable TransSUMOylation. As to conditions: protein 2 construct coexpressed with U-MEK2 and EGFP-SUMO1 in HEK293; western blot; Table 1.
From the text: as §1, §2

The target in a further assay is T6, U-ERK2 (Homo sapiens, UniProt P28482+P63279).
T6 construct: expressed in transfected cells; host or cells: HEK293
Nature of the assay: Trans-SUMOylation by U-ERK2. The note with it: protein 2 construct coexpressed with U-ERK2 and EGFP-SUMO1 in HEK293; western blot; Table 2. Format: cell-based.

Another assay addresses T7, U-p38α (Homo sapiens, UniProt P63279+Q16539).
T7 construct: expressed in transfected cells; host or cells: HEK293
Nature of the assay: Trans-SUMOylation by U-p38α. Format: cell-based. The note with it: protein 2 construct coexpressed with U-p38α and EGFP-SUMO1 in HEK293; western blot; Table 1.

In another assay the target is T8, MEK2-U (Homo sapiens, UniProt P36507+P63279).
T8 construct: expressed in transfected cells; host or cells: HEK293
Nature of the assay: Trans-SUMOylation by MEK2-U. Format: cell-based. More on the design: key: (++), strong TransSUMOylation; (+), TransSUMOylation; (+/−) weak TransSUMOylation; (−) no detectable TransSUMOylation. The note with it: protein 2 construct coexpressed with MEK2-U and EGFP-SUMO1 in HEK293; western blot; Table 1.
From the text: as §1, §2

A further assay deals with T9, ERK2-U (Homo sapiens, UniProt P28482+P63279).
T9 construct: expressed in transfected cells; host or cells: HEK293
Nature of the assay: Trans-SUMOylation by ERK2-U. Format: cell-based. As to conditions: protein 2 construct coexpressed with ERK2-U and EGFP-SUMO1 in HEK293; western blot; Table 2.

For the next assay, the target named is T10, U-TAF10 (Homo sapiens, UniProt P63279+Q12962).
T10 construct: Ubc9 (fusion partner); expressed in transfected cells; host or cells: HEK293
Nature of the assay: Trans-SUMOylation by U-TAF10. Format: cell-based. As to conditions: protein 2 construct coexpressed with U-TAF10 and EGFP-SUMO1 in HEK293; western blot; Table 2. More on the design: key: (++), strong TransSUMOylation; (+), TransSUMOylation; (+/−) weak TransSUMOylation; (−) no detectable TransSUMOylation.
From the text: as §1, §2

A further assay deals with T11, MK2-U (Homo sapiens, UniProt P49137+P63279).
T11 construct: expressed in transfected cells; host or cells: HEK293
Nature of the assay: Trans-SUMOylation by MK2-U. The note with it: protein 2 construct coexpressed with MK2-U and EGFP-SUMO1 in HEK293; western blot; Table 2. Format: cell-based.

A further assay deals with T12, STAT1-U (Homo sapiens, UniProt P42224+P63279).
T12 construct: expressed in transfected cells; host or cells: HEK293
Nature of the assay: Trans-SUMOylation by STAT1-U. Format: cell-based. As to conditions: protein 2 construct coexpressed with STAT1-U and EGFP-SUMO1 in HEK293; western blot; Table 1.

A further assay concerns STAT1. Nature of the assay: Interplay of STAT1 Y701 phosphorylation and K703 SUMOylation by USDDS, western blot. The note with it: HEK293, USDDS with AP21967 1 μM and interferon-β, any stimulation scenario. Format: cell-based, human.

T11 sequence (P49137+P63279 fused): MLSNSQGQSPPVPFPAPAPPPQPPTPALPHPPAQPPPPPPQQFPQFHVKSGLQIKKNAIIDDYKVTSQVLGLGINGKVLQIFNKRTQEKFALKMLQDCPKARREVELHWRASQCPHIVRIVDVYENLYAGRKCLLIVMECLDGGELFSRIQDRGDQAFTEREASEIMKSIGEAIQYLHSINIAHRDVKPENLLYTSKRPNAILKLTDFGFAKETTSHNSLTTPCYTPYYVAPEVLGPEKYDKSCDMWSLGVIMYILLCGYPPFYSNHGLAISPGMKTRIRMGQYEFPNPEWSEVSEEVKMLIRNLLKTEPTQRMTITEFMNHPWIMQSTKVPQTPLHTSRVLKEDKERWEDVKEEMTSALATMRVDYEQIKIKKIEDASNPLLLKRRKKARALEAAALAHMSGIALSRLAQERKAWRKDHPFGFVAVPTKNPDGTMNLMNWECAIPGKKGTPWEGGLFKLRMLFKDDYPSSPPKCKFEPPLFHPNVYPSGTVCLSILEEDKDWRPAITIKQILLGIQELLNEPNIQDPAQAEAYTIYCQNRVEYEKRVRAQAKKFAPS
T3 sequence (O43513+P63279 fused): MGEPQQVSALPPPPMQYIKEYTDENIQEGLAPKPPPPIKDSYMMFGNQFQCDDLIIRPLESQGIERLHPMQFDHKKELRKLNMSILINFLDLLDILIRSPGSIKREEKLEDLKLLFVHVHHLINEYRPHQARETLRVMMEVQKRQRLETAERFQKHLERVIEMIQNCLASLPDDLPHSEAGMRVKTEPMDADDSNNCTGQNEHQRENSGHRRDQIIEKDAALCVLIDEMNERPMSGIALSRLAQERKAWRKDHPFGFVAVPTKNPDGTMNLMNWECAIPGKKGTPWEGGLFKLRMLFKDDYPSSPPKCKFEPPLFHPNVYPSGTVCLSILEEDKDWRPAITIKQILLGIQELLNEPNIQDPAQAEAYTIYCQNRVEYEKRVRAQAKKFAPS
T7 sequence (P63279+Q16539 fused): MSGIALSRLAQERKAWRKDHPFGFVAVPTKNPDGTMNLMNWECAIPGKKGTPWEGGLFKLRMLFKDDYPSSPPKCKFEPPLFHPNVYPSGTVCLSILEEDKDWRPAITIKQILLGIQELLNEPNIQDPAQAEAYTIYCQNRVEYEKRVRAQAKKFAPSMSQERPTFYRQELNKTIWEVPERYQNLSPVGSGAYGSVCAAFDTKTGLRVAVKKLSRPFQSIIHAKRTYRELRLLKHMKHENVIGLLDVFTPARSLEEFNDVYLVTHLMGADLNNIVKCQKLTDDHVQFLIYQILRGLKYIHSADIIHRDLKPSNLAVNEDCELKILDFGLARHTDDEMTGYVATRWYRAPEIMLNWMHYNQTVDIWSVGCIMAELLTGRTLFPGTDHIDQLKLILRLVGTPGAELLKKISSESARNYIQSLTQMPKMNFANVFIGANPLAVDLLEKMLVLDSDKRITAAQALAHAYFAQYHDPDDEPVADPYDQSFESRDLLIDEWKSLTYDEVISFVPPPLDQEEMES
T4 sequence (P63279+Q8IW41 fused): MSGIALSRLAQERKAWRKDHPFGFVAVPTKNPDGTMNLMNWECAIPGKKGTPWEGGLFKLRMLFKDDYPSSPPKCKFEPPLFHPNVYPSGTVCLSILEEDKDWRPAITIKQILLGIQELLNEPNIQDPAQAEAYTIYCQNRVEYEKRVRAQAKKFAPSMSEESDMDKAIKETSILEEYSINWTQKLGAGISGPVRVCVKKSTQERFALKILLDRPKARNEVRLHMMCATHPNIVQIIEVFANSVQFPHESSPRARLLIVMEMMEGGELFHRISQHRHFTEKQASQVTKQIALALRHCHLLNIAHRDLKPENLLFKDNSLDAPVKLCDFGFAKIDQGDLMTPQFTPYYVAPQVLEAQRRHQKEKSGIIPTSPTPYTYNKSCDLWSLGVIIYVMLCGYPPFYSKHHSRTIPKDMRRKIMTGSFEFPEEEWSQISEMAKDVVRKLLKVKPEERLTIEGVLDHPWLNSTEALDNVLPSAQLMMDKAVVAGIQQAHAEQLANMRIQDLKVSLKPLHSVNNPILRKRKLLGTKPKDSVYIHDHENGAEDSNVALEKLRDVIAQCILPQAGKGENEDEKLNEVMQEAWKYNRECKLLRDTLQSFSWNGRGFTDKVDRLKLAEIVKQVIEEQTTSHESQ
T9 sequence (P28482+P63279 fused): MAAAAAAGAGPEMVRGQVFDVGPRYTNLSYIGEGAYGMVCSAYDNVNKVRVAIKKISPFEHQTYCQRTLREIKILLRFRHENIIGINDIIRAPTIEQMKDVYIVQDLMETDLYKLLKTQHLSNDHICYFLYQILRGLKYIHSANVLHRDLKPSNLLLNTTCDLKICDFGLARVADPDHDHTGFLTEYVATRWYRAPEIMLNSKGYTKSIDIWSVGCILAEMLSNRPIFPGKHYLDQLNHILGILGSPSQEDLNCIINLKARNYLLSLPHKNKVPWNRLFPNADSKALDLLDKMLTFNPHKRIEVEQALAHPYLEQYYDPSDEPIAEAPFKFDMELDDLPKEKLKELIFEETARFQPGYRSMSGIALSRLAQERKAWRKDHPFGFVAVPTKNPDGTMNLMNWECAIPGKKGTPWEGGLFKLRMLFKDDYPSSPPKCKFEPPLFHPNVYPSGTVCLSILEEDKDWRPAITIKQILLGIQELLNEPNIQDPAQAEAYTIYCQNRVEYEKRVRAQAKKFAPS
T1 sequence (P63279+Q16543 fused): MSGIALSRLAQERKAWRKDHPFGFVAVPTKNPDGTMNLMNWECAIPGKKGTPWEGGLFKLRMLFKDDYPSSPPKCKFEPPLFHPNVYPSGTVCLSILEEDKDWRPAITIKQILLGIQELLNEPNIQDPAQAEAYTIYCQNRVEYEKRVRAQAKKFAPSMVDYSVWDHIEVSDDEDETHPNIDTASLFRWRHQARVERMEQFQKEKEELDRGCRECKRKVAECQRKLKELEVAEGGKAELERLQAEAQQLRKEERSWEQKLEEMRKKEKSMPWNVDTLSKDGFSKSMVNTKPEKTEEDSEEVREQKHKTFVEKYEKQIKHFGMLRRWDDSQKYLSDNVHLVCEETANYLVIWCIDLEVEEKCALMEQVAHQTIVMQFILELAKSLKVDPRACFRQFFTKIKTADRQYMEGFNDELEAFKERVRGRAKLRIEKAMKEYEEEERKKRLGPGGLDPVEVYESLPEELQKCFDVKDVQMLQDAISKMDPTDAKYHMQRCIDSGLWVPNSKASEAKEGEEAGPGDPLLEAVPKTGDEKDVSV
T10 sequence (P63279+Q12962 fused): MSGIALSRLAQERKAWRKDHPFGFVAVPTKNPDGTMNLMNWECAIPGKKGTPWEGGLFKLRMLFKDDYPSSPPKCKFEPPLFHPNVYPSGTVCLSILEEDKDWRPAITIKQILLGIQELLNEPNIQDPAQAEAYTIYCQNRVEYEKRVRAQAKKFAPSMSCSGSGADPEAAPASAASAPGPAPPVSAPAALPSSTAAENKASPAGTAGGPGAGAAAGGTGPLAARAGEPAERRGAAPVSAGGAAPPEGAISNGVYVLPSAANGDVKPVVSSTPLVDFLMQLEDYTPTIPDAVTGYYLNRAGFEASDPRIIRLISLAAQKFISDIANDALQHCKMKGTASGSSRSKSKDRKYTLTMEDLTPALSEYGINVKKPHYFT
T6 sequence (P63279+P28482 fused): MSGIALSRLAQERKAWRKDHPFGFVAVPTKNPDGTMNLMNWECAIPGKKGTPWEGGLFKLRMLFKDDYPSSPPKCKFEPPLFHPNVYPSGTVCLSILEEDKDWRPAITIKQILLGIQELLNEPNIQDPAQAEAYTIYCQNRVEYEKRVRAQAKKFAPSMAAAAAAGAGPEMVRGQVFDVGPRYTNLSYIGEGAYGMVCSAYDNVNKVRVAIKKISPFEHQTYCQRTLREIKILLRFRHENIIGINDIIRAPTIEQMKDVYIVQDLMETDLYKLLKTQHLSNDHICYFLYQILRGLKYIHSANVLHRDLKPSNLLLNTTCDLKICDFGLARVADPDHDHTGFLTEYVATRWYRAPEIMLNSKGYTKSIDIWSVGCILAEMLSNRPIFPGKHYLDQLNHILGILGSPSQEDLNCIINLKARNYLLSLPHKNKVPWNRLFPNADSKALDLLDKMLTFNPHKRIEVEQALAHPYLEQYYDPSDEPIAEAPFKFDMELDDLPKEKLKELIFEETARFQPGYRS
T2 sequence (P11802+P63279 fused): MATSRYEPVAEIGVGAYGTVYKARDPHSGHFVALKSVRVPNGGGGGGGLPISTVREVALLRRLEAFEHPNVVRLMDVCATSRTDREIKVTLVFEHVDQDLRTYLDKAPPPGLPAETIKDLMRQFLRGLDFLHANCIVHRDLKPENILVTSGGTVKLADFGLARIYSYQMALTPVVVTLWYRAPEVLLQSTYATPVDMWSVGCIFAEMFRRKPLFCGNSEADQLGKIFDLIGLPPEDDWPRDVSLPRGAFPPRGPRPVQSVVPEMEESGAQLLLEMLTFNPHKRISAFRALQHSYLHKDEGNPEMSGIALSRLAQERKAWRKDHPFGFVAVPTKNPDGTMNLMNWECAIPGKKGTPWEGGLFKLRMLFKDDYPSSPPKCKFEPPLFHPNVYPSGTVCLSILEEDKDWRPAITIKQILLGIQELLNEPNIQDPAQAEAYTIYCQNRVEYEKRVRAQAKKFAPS

On to GST-CDC37: CDC37 fused to GST tag, for which the Trans-SUMOylation entry with U-CDC37 and with CDK4-U was “+” in each case.

On to GST-CRSP9: CRSP9 fused to GST tag, for which the Trans-SUMOylation result in the assay with CRSP9-U is on record as “−”.

In the case of GST-ERK2: ERK2 fused to GST tag, the Trans-SUMOylation result in the assay with U-MK5 is “−”; with U-MEK2, “+”; with U-ERK2, “−”; with U-p38α, “−”; with MEK2-U it was “+”; with ERK2-U, “−”.

Take GST-TAF10: TAF10 fused to GST tag: the Trans-SUMOylation entry is on record as “(+/−)” in the assay with U-TAF10 and “−” with MK2-U.

As for “STAT1-FKBP: human STAT1a fused to FKBP heterodimerisation domain”, the Trans-SUMOylation result with STAT1-U and with MK2-U was “−” in each case. In addition, the “double modification of STAT1 by SUMOylation and Y701 phosphorylation” value with STAT1 is listed as “no double modification”.
